Results published in paper PMC4810246.

Experiments:
[1] = target: porcine aminopeptidase N (pAPN) ectodomain with a C-terminal His6 tag (UniProt P15145); assay: ELISA; conditions: read off a plot
[2] = target: the three mutant proteins; assay: ELISA; plates coated overnight at 4 °C with IgG4 Fc-tagged S1 fragments or mutants (60 μg/mL or 120 to 1.875 μg/mL), blocked with BSA, incubated with His6-tagged pAPN (50 μg/mL) 2 h at RT; anti-His detection
[3] = S protein 1.875 μg/mL, parent: est. 0.25
[4] = S protein 3.75 μg/mL, parent: est. 0.42
[5] = S protein 7.5 μg/mL, parent: est. 0.70
[6] = S protein 15 μg/mL, parent: est. 1.2
[7] = S protein 30 μg/mL, parent: est. 1.7
[8] = S protein 60 μg/mL, parent: est. 2.0
[9] = S proteins coated at 60 μg/mL, pAPN in solution, parent: est. 1.9

In the case of “PEDV CHGD-01 S1 C-terminus fragment S477-629 with a C-terminal IgG4 Fc tag residues 521-534 replaced by HCoV-NL63 residues 493-506 (RBM1-1)”, the response [1, 3] is reported as 0.13 Abs (630 nm), the response [1, 4] is reported as 0.25 Abs (630 nm) and the response [1, 5] is reported as 0.6 Abs (630 nm). For the same molecule, the response [1, 6] was 0.98 Abs (630 nm), the response [1, 7] was 1 Abs (630 nm) and the response [1, 8] was 1.1 Abs (630 nm). The response [1, 9] was 1.2 Abs (630 nm).

With “PEDV CHGD-01 S1 C-terminus fragment S477-629 with a C-terminal IgG4 Fc tag residues 556-563 replaced by HCoV-NL63 residues 534-541 (RBM2-1)” the response [1, 3] was 0.15 Abs (630 nm), the response [1, 4] was 0.32 Abs (630 nm) and the response [1, 5] was 0.7 Abs (630 nm). For the same molecule, the response [1, 6] was 0.88 Abs (630 nm), the response [1, 7] was 0.93 Abs (630 nm) and the response [1, 8] was 1.1 Abs (630 nm). For the same molecule, the response [1, 9] was 1.2 Abs (630 nm).

For “PEDV CHGD-01 S1 C-terminus fragment S477-629 with a C-terminal IgG4 Fc tag residues 607-615 replaced by SGSGS (RBM3-2)”, the response [1, 3] was 0.05 Abs (630 nm), the response [1, 4] was 0.06 Abs (630 nm) and the response [1, 5] was 0.13 Abs (630 nm). The response [1, 6] was 0.34 Abs (630 nm), the response [1, 7] was 0.8 Abs (630 nm) and the response [1, 8] was 1.2 Abs (630 nm). For the same molecule, the response [1, 9] was 1.4 Abs (630 nm).

B1: porcine aminopeptidase N (pAPN) ectodomain with a C-terminal His6 tag (receptor)
chain: QSKPWNRYRLPTTLLPDSYNVTLRPYLTPNADGLYIFKGKSIVRLLCQEPTDVIIIHSKKLNYTTQGHMVVLRGVGDSQVPEIDRTELVELTEYLVVHLKGSLQPGHMYEMESEFQGELADDLAGFYRSEYMEGNVKKVLATTQMQSTDARKSFPCFDEPAMKATFNITLIHPNNLTALSNMPPKGSSTPLAEDPNWSVTEFETTPVMSTYLLAYIVSEFQSVNETAQNGVLIRIWARPNAIAEGHGMYALNVTGPILNFFANHYNTSYPLPKSDQIALPDFNAGAMENWGLVTYRENALLFDPQSSSISNKERVVTVIAHELAHQWFGNLVTLAWWNDLWLNEGFASYVEYLGADHAEPTWNLKDLIVPGDVYRVMAVDALASSHPLTTPAEEVNTPAQISEMFDSISYSKGASVIRMLSNFLTEDLFKEGLASYLHAFAYQNTTYLDLWEHLQKAVDAQTSIRLPDTVRAIMDRWTLQMGFPVITVDTKTGNISQKHFLLDSESNVTRSSAFDYLWIVPISSIKNGVMQDHYWLRDVSQAQNDLFKTASDDWVLLNVNVTGYFQVNYDEDNWRMIQHQLQTNLSVIPVINRAQVIYDSFNLATAHMVPVTLALDNTLFLNGEKEYMPWQAALSSLSYFSLMFDRSEVYGPMKKYLRKQVEPLFQHFETLTKNWTERPENLMDQYSEINAISTACSNGLPQCENLAKTLFDQWMSDPENNPIHPNLRSTIYCNAIAQGGQDQWDFAWGQLQQAQLVNEADKLRSALACSNEVWLLNRYLGYTLNPDLIRKQDATSTINSIASNVIGQPLAWDFVQSNWKKLFQDYGGGSFSFSNLIQGVTRRFSSEFELQQLEQFKKNNMDVGFGSGTRALEQALEKTKANIKWVKENKEVVLNWFIEHS
B1 was tested, and the percent reduction of receptor-binding activity against wild-type S477–629 [2] was 30 to 40%.
